Measured values as given in US20100184658A1 (published 2010).

Experiments:
Assay in all cases: cell-based or functional assay
[1] = biological target: T1, SGKL (SGK3) Serum/glucocorticoid regulated kinase family, member 3 (UniProt Q96BR1 1-496, limits assumed)
T1 sequence (looked up): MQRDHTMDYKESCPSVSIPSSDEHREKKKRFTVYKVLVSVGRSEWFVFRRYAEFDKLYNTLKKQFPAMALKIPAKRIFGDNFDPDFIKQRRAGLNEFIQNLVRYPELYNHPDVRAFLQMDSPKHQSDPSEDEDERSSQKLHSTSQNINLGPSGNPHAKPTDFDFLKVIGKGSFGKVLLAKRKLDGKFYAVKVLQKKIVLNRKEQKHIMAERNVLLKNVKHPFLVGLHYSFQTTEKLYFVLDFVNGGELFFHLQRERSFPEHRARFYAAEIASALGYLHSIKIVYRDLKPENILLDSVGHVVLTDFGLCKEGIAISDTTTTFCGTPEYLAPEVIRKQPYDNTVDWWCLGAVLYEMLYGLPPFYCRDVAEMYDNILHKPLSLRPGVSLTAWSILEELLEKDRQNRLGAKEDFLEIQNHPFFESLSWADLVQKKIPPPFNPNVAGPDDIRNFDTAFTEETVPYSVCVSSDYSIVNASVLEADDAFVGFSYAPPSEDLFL

[2] = biological target: T2, CAMK4 (CaMKIV) Calcium/calmodulin-dependent protein kinase IV (UniProt Q16566 1-473, limits assumed)
T2 sequence (looked up): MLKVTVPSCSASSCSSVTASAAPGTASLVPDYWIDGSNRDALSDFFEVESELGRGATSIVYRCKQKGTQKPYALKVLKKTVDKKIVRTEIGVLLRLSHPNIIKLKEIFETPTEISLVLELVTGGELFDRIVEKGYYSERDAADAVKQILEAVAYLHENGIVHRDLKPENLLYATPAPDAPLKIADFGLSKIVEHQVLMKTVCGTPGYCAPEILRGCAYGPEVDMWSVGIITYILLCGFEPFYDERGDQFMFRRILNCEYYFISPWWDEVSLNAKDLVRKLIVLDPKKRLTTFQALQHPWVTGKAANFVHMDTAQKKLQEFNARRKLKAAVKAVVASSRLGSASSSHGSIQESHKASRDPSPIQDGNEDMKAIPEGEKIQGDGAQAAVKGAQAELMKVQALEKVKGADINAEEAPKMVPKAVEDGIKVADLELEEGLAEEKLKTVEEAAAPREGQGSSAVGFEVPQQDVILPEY

PIM2 = PIM2 (UniProt Q9P1W9 1-311, limits assumed)
GRK6 = GRK6 (UniProt P43250 1-576, limits assumed)
[3] = biological target: T3, NEK9 NIMA (never in mitosis gene a)-related kinase 9 (UniProt Q8TD19 1-979, limits assumed)
T3 sequence (looked up): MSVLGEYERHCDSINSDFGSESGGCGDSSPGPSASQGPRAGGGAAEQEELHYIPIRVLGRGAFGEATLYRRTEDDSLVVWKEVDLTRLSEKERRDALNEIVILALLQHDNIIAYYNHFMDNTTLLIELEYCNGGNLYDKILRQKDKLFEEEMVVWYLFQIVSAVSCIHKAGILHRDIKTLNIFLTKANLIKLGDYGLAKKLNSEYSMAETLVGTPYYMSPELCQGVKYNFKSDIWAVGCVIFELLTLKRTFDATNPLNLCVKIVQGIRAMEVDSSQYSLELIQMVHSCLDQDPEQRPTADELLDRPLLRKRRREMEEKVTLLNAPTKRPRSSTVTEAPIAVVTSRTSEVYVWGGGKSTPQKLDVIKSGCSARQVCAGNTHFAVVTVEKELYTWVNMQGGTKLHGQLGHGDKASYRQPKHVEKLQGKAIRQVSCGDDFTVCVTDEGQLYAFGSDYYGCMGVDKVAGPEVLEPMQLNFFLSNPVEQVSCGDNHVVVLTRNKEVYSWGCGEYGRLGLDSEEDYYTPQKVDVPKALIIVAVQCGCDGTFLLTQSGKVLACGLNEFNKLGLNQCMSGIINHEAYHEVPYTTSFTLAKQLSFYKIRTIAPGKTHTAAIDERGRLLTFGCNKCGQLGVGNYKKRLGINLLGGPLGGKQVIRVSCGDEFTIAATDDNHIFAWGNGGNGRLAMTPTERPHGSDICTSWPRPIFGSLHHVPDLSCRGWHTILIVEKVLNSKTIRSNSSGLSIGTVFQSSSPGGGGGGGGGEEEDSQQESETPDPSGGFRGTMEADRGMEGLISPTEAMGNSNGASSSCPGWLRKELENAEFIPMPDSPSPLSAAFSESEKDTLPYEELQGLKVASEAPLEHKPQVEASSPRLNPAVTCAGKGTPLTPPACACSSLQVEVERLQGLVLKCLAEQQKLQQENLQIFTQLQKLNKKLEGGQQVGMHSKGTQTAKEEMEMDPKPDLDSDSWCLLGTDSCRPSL

PASK = PASK (UniProt Q96RG2 879-1323, limits assumed)
CAMK2B (CaMKII beta) = CAMK2B (CaMKII beta) (UniProt Q13554 1-666, limits assumed)
[4] = biological target: T4, SGK2 Serum/glucocorticoid regulated kinase 2 (UniProt Q9HBY8 1-367, limits assumed)
T4 sequence (looked up): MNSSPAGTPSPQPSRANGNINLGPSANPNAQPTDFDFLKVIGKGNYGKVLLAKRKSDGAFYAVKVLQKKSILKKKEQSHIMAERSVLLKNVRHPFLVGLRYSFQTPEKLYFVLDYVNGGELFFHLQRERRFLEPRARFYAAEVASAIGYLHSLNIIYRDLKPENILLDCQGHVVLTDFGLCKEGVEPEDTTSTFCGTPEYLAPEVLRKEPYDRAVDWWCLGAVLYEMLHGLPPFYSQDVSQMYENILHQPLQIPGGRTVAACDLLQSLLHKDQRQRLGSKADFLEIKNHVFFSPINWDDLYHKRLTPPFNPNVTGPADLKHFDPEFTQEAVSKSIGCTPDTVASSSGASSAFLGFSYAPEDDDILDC
Further: test concentration or dose not given here.

GRK6, sequence (P43250 whole entry): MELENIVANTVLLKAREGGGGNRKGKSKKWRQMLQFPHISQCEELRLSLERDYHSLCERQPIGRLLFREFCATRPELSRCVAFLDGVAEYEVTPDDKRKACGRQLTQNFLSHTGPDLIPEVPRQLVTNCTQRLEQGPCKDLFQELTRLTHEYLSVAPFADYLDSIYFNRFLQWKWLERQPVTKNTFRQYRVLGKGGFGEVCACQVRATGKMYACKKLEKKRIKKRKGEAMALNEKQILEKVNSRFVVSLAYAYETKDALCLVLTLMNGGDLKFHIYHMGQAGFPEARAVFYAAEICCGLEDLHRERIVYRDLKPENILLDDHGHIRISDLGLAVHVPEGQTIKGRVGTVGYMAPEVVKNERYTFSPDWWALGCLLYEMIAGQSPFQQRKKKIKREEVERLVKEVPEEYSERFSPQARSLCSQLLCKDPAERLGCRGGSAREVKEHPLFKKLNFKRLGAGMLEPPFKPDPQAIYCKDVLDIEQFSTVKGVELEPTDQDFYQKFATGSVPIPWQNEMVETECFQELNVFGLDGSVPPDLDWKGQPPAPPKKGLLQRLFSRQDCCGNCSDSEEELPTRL
PASK, sequence (Q96RG2 879-1323 limits assumed): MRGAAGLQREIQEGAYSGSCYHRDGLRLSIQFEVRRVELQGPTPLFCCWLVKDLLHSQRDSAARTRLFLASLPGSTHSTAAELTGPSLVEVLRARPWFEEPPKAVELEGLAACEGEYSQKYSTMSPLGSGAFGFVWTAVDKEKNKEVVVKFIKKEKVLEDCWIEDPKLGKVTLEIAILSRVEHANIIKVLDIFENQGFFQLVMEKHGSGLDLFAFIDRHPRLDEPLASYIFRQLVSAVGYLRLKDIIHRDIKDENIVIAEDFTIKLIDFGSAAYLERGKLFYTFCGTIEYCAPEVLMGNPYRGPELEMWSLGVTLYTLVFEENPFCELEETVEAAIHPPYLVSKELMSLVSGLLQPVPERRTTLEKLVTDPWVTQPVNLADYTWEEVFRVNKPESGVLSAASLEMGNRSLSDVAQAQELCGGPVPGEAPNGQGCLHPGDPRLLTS
PIM2, sequence (Q9P1W9 whole entry): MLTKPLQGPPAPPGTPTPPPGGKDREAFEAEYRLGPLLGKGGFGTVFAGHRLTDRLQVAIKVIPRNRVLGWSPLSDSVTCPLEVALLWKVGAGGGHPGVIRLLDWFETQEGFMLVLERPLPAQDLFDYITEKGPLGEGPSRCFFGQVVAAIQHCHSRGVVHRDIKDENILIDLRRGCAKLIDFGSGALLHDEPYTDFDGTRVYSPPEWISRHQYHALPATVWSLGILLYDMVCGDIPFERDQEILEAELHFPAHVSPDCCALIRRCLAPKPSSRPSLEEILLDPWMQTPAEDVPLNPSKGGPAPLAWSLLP
CAMK2B (CaMKII beta), sequence (Q13554 whole entry): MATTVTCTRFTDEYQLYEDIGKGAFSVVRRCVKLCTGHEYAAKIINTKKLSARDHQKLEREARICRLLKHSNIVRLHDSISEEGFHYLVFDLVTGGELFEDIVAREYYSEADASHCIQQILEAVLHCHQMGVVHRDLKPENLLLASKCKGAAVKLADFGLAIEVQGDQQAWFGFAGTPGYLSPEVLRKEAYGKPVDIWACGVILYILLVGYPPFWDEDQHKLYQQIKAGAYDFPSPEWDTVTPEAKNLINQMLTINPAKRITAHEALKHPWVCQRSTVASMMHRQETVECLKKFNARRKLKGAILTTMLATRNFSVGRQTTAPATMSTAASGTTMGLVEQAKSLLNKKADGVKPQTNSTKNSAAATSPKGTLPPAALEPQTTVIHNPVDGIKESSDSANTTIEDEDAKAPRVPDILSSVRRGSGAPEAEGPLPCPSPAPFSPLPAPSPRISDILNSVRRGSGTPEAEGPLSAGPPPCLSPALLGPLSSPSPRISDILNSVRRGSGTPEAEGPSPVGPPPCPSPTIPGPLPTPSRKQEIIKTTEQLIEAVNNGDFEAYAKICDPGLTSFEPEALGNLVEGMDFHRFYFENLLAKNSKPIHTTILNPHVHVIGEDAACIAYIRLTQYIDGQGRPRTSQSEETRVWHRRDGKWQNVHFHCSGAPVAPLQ

## SGRPPMIVWFNRPFLIAVSHTHGQTILFMAKVINPVGA [D3 peptide]
[1]
  % Inhibition mean: 97%
[2]
  % Inhibition mean: 99.6%
PIM2
  % Inhibition mean: 89.9%
GRK6
  % Inhibition mean: 57.1%
[3]
  % Inhibition mean: 108%
PASK
  % Inhibition mean: 80.8%
CAMK2B (CaMKII beta)
  % Inhibition mean: 90.3%
[4]
  % Inhibition mean: 102%
